Experimental data as given in patent US20090162869A1 (RIKEN, published 2009).

Biological target: T1, DAP12, endogenous in mouse cells (splenic cells, FL-PDC) (mouse, UniProt O54885 22-114, phosphorylated in CpG-A-stimulated FL-PDC (sites not given))
T1 construct: whole, on cells
Experiment: association in CpG-A-stimulated FL-PDC (FIG. 20); method not described

T1 sequence (O54885 22-114): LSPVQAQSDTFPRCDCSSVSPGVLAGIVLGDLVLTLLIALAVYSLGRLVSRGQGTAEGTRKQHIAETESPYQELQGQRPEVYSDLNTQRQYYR

binding result: binds
B1: membrane molecule (A) of the present invention (PDC-TREM), mouse, full length (receptor)
chain: QNPELLRTQEGETVSVTCWYDSLYHSSEKIWCKQIDNLCYPFVSKSAEKPRFLIQQSSRFNFFTVTMTKLKMSDSGIYHCGIVANNTSVYLRNIHLVVSKGSSVVSTPDIIPATRLTKLPTLITTKHSPSDTTTTRSLPQPTTVVSSPDPRVIIINGTDADRGFVSSVTIPVVCGLLSKTLVFTVLFIVTQKSFGRQAMKAHNSNS
notes: also called the present membrane molecule
